Experimental data: patent US20040229298A1
“And” between values parts separate entries of the source, which are not always exact repeats. Equal values may be shown once. Ends that are not written are not given here.

Legend:
Assay in all cases: G assay ELISA, 10 uM biotin peptide on anti-GST-captured GST-PDZ
[1] = target: GST-MUPP1 PDZ domain 10 (human)
[2] = target: GST-Shank 3 PDZ domain 1 (human)
[3] = target: GST-KIAA0147 PDZ domain 4 (human)
[4] = target: GST-KIAA1719 PDZ domain 3 (human)
[5] = target: GST-MUPP1 PDZ domain 13 (human)
[6] = target: GST-MAGI 1 PDZ domain 4 (human)
[7] = target: GST-EBP50 PDZ domain 1, clone #167.2 (human)
[8] = target: GST-ZO-1 PDZ domain 1 (human)
[9] = target: GST-MAGI 1 PDZ domain 3 (human)
[10] = target: GST-KIAA0561 PDZ domain 1 (human)
[11] = target: GST-KIAA0973 PDZ domain 1, clone #148.5 (human)
[12] = target: GST-KIAA0545 PDZ domain 1 (human)
[13] = target: GST-TIAM 2 PDZ domain 1 (human)
[14] = target: GST-SITAC-18 PDZ domain 1 (human)
[15] = target: GST-KIAA0316 PDZ domain 1 (human)
[16] = target: GST-RGS12 PDZ domain 1 (human)
[17] = target: GST-Syntrophin gamma 1 PDZ domain 1 (human)
[18] = target: GST-FLJ11215 PDZ domain 1 (human)
[19] = target: GST-NSP PDZ domain 1, clone #42.5 (human)
[20] = target: GST-Numb BP PDZ domain 1 (human)
[21] = target: GST-APXL1 PDZ domain 1 (human)
[22] = target: GST-KIAA0751 PDZ domain 1 (human)
[23] = target: GST-AF6 PDZ domain 1 (human)
[24] = target: GST-GTPase PDZ domain 1 (human)
[25] = target: GST-HTRA 3 PDZ domain 1 (human)
[26] = target: GST-Shroom PDZ domain 1 (human)
[27] = target: GST-EBP50 PDZ domain 1, clone #311.1 (human)

B1: HPV16 E6 C-terminal PDZ ligand peptide (20 mer, biotinylated), P03126 139-158 (peptide)
peptide: WTGRCMSCCRSSRTRRETQL
modifications: not fully specified; cysteine pairing not given here
[1]
  Ave OD: 0.393 A450 nm and 0.392 A450 nm
  OD S/N (ratio to GST only well): 2.03 and 1.96
[2]
  Ave OD: 0.396 A450 nm
  OD S/N (ratio to GST only well): 2.61
[3]
  Ave OD: 0.38 A450 nm
  OD S/N (ratio to GST only well): 2.34
[4]
  Ave OD: 0.346 A450 nm
  OD S/N (ratio to GST only well): 1.65
[5]
  Ave OD: 0.435 A450 nm and 0.411 A450 nm
  OD S/N (ratio to GST only well): 1.56 and 1.75
[6]
  Ave OD: 0.395 A450 nm
  OD S/N (ratio to GST only well): 1.2
[7]
  Ave OD: 0.381 A450 nm and 0.355 A450 nm
  OD S/N (ratio to GST only well): 1.94 and 2.28
[8]
  Ave OD: 0.412 A450 nm
  OD S/N (ratio to GST only well): 1.83
[9]
  Ave OD: 0.354 A450 nm
  OD S/N (ratio to GST only well): 1.46
[10]
  Ave OD: 0.347 A450 nm
  OD S/N (ratio to GST only well): 2.44
[11]
  Ave OD: 0.378 A450 nm
  OD S/N (ratio to GST only well): 1.68
[12]
  Ave OD: 0.44 A450 nm
  OD S/N (ratio to GST only well): 3.96
[13]
  Ave OD: 0.356 A450 nm
  OD S/N (ratio to GST only well): 2.05
[14]
  Ave OD: 0.398 A450 nm
  OD S/N (ratio to GST only well): 1.63
[15]
  Ave OD: 0.343 A450 nm
  OD S/N (ratio to GST only well): 2.34
[16]
  Ave OD: 0.429 A450 nm
  OD S/N (ratio to GST only well): 3.96
[17]
  Ave OD: 0.358 A450 nm
  OD S/N (ratio to GST only well): 2
[18]
  Ave OD: 0.449 A450 nm
  OD S/N (ratio to GST only well): 2.77
[19]
  Ave OD: 0.416 A450 nm
  OD S/N (ratio to GST only well): 1.95
[20]
  Ave OD: 0.352 A450 nm
  OD S/N (ratio to GST only well): 3.17
[21]
  Ave OD: 0.461 A450 nm
  OD S/N (ratio to GST only well): 3.14
[22]
  Ave OD: 0.451 A450 nm
  OD S/N (ratio to GST only well): 2.1
[23]
  Ave OD: 0.444 A450 nm
  OD S/N (ratio to GST only well): 1.8
[24]
  Ave OD: 0.35 A450 nm
  OD S/N (ratio to GST only well): 1.12
[25]
  Ave OD: 0.413 A450 nm
  OD S/N (ratio to GST only well): 1.34
[26]
  Ave OD: 0.361 A450 nm
  OD S/N (ratio to GST only well): 3.25
[27]
  Ave OD: 0.432 A450 nm
  OD S/N (ratio to GST only well): 2.05
